Data published in publication PMC12394722, “Regulatory role of the N-terminal intrinsically disordered region of the DEAD-box RNA helicase DDX3X in selective RNA recognition”.

Legend:
DDX3X N-IDR [1] = target: T1, DDX3X N-IDR (human, UniProt O00571 1-132); test: EMSA; 125 mM KCl; EMSA: 20 mM K-phosphate pH 7.0, 125 mM KCl, 1 mM DTT, 0.005% Tween-20, 10% glycerol (1 mM ATP-Mg for MBP-FL/Core-C), gel at room temperature; ITC: 20 mM K-phosphate pH 7.0, 50 mM KCl, 25 C; NMR: 200 mM KCl (also 120 mM), 10 C, 50 uM; settings: protein: recombinant, tags: His6-SUMO tag cleaved (Ulp1)
T1 sequence (O00571 1-132): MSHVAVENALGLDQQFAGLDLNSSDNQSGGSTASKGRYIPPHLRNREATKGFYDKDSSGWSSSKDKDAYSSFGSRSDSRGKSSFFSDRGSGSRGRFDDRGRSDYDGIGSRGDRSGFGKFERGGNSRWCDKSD

MBP-Core-C DDX3X = MBP-Core-C DDX3X (human, UniProt O00571 132-662); test: EMSA; 1 mM ATP-Mg; EMSA: 20 mM K-phosphate pH 7.0, 125 mM KCl, 1 mM DTT, 0.005% Tween-20, 10% glycerol (1 mM ATP-Mg for MBP-FL/Core-C), gel at room temperature; ITC: 20 mM K-phosphate pH 7.0, 50 mM KCl, 25 C; NMR: 200 mM KCl (also 120 mM), 10 C, 50 uM; settings: protein: recombinant, tags: N-terminal His6-MBP, label: 5'-FAM
Chain of MBP-Core-C DDX3X (O00571 132-662): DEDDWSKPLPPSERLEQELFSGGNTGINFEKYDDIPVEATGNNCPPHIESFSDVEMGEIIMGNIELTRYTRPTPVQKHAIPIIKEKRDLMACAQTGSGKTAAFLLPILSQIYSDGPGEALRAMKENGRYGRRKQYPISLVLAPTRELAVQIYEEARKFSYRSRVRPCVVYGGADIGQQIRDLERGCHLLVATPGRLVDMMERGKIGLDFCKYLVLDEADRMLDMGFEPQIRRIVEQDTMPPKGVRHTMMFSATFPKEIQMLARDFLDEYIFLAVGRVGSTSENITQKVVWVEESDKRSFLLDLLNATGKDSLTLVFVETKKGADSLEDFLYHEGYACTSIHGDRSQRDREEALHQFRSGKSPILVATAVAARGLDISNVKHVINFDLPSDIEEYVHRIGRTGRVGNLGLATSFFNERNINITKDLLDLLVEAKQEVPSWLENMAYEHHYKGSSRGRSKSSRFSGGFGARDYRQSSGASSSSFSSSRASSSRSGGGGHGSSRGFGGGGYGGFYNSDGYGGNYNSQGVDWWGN

MBP-FL DDX3X [2] = target: T2, MBP-FL DDX3X (human, UniProt O00571 1-662); test: as above; settings: protein: recombinant, tags: N-terminal His6-MBP, label: 5'-FAM
T2 sequence (O00571 whole entry): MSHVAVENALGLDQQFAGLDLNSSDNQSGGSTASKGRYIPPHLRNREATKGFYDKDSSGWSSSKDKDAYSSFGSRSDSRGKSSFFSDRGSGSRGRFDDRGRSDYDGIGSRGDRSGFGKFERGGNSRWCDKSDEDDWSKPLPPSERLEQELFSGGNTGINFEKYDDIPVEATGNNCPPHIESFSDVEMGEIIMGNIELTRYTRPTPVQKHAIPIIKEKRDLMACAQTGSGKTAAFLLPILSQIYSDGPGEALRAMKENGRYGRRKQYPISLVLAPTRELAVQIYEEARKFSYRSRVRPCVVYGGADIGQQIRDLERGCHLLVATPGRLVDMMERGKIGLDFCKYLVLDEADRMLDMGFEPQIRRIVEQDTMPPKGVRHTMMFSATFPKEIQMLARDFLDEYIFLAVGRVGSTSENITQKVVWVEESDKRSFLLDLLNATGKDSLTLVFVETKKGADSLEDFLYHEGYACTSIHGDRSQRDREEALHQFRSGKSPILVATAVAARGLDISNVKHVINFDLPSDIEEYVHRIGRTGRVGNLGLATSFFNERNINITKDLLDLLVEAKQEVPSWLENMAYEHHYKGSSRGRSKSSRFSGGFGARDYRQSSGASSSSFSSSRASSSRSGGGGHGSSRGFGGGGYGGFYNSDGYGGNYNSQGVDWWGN

DDX3X N-IDR [3] = target: T1, DDX3X N-IDR; test: EMSA; little to no shift; 125 mM KCl; EMSA: 20 mM K-phosphate pH 7.0, 125 mM KCl, 1 mM DTT, 0.005% Tween-20, 10% glycerol (1 mM ATP-Mg for MBP-FL/Core-C), gel at room temperature; ITC: 20 mM K-phosphate pH 7.0, 50 mM KCl, 25 C; NMR: 200 mM KCl (also 120 mM), 10 C, 50 uM; settings: protein: recombinant; tags: His6-SUMO tag cleaved (Ulp1); label: 3'-FAM
MBP-FL DDX3X [4] = target: T2, MBP-FL DDX3X; test: EMSA; little to no shift; 1 mM ATP-Mg; EMSA: 20 mM K-phosphate pH 7.0, 125 mM KCl, 1 mM DTT, 0.005% Tween-20, 10% glycerol (1 mM ATP-Mg for MBP-FL/Core-C), gel at room temperature; ITC: 20 mM K-phosphate pH 7.0, 50 mM KCl, 25 C; NMR: 200 mM KCl (also 120 mM), 10 C, 50 uM; settings: protein: recombinant, tags: N-terminal His6-MBP
RR-1 fragment [5] = target: T3, RR-1 fragment (human, UniProt O00571 31-61); test: NMR; EMSA: 20 mM K-phosphate pH 7.0, 125 mM KCl, 1 mM DTT, 0.005% Tween-20, 10% glycerol (1 mM ATP-Mg for MBP-FL/Core-C), gel at room temperature; ITC: 20 mM K-phosphate pH 7.0, 50 mM KCl, 25 C; NMR: 200 mM KCl (also 120 mM), 10 C, 50 uM; settings: protein: recombinant, tags: His6-SUMO tag cleaved
T3 sequence (O00571 31-61): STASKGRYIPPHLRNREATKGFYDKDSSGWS

RR-3 fragment [6] = target: T4, RR-3 fragment (human, UniProt O00571 106-127); test: as above; settings: protein: recombinant; tags: His6-SUMO tag cleaved; parallel G4, dimer of 2 strands
T4 chain: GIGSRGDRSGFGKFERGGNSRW

RR-2 fragment [7] = target: T5, RR-2 fragment (human, UniProt O00571 73-102); test: as above; settings: protein: recombinant, tags: His6-SUMO tag cleaved
T5 sequence (O00571 73-102): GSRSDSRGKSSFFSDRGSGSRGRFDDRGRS

DDX3X N-IDR [8] = target: T1, DDX3X N-IDR; test: ITC; 50 mM KCl; dimer concentration; EMSA: 20 mM K-phosphate pH 7.0, 125 mM KCl, 1 mM DTT, 0.005% Tween-20, 10% glycerol (1 mM ATP-Mg for MBP-FL/Core-C), gel at room temperature; ITC: 20 mM K-phosphate pH 7.0, 50 mM KCl, 25 C; NMR: 200 mM KCl (also 120 mM), 10 C, 50 uM; settings: protein: recombinant; tags: His6-SUMO tag cleaved (Ulp1); parallel G4, dimer of 2 strands
DDX3X N-IDR [9] = target: T1, DDX3X N-IDR; test: ITC; 50 mM KCl; EMSA: 20 mM K-phosphate pH 7.0, 125 mM KCl, 1 mM DTT, 0.005% Tween-20, 10% glycerol (1 mM ATP-Mg for MBP-FL/Core-C), gel at room temperature; ITC: 20 mM K-phosphate pH 7.0, 50 mM KCl, 25 C; NMR: 200 mM KCl (also 120 mM), 10 C, 50 uM; settings: protein: recombinant; tags: His6-SUMO tag cleaved (Ulp1); G4 monomer
RR-3 fragment [10] = target: T4, RR-3 fragment; test: NMR; smaller reduction than telomeric GQ; EMSA: 20 mM K-phosphate pH 7.0, 125 mM KCl, 1 mM DTT, 0.005% Tween-20, 10% glycerol (1 mM ATP-Mg for MBP-FL/Core-C), gel at room temperature; ITC: 20 mM K-phosphate pH 7.0, 50 mM KCl, 25 C; NMR: 200 mM KCl (also 120 mM), 10 C, 50 uM; settings: protein: recombinant; tags: His6-SUMO tag cleaved; G4 monomer
RR-1 fragment [11] = target: T3, RR-1 fragment; test: NMR; little to no change; EMSA: 20 mM K-phosphate pH 7.0, 125 mM KCl, 1 mM DTT, 0.005% Tween-20, 10% glycerol (1 mM ATP-Mg for MBP-FL/Core-C), gel at room temperature; ITC: 20 mM K-phosphate pH 7.0, 50 mM KCl, 25 C; NMR: 200 mM KCl (also 120 mM), 10 C, 50 uM; settings: protein: recombinant, tags: His6-SUMO tag cleaved
RR-3 fragment [12] = target: T4, RR-3 fragment; test: as above; settings: protein: recombinant, tags: His6-SUMO tag cleaved
RR-2 fragment [13] = target: T5, RR-2 fragment; test: as above; settings: protein: recombinant, tags: His6-SUMO tag cleaved
DDX3X N-IDR [14] = target: T1, DDX3X N-IDR; test: NMR; 200 mM KCl; EMSA: 20 mM K-phosphate pH 7.0, 125 mM KCl, 1 mM DTT, 0.005% Tween-20, 10% glycerol (1 mM ATP-Mg for MBP-FL/Core-C), gel at room temperature; ITC: 20 mM K-phosphate pH 7.0, 50 mM KCl, 25 C; NMR: 200 mM KCl (also 120 mM), 10 C, 50 uM; settings: protein: recombinant; tags: His6-SUMO tag cleaved (Ulp1); label: 5'-FAM in EMSA; G4, heterogeneous
DDX3X N-IDR [15] = target: T1, DDX3X N-IDR; test: NMR; EMSA: 20 mM K-phosphate pH 7.0, 125 mM KCl, 1 mM DTT, 0.005% Tween-20, 10% glycerol (1 mM ATP-Mg for MBP-FL/Core-C), gel at room temperature; ITC: 20 mM K-phosphate pH 7.0, 50 mM KCl, 25 C; NMR: 200 mM KCl (also 120 mM), 10 C, 50 uM; settings: protein: recombinant, tags: His6-SUMO tag cleaved (Ulp1)
[16] = parallel G4, dimer of 2 strands

B1: FAM-telomeric GQ RNA (structured_RNA)
RNA: UAGGGUUAGGGU
Kd (DDX3X N-IDR [1]; label: 5'-FAM, parallel G4, dimer of 2 strands): 1000 ± 200 nM | Kd (MBP-Core-C DDX3X; [16]): 579 ± 69 nM | Kd (MBP-FL DDX3X [2]; [16]): 54 ± 14 nM

B2: FAM-NRAS GQ RNA (structured_RNA)
RNA: UGUGGGAGGGGCGGGUCUGGGUGC
Kd (DDX3X N-IDR [1]; label: 5'-FAM, G4 monomer): 54 ± 12 nM | Kd (MBP-Core-C DDX3X; G4 monomer): 201 ± 5 nM | Kd (MBP-FL DDX3X [2]; G4 monomer): 43 ± 4 nM

B3: RAC1 53-77 (structured_RNA)
RNA: GCGGAGGGCGAGGCGGCGUGGACAG
Kd (DDX3X N-IDR [1]; label: 5'-FAM in EMSA, G4): 510 ± 80 nM

B4: ODC1 150-174 (structured_RNA)
RNA: AGUAGGGAGCGGCGUGCCGUGGGGC
Kd (DDX3X N-IDR [1]; label: 5'-FAM in EMSA, G4, heterogeneous): 1970 ± 230 nM

B5: FAM-NRAS mutant RNA (ssRNA)
RNA: UGUAGAAAGAGCAGAUCUAGAUGC
Kd (DDX3X N-IDR [1]; label: 5'-FAM, GQ abolished): 6000 ± 800 nM | Kd (MBP-FL DDX3X [2]; GQ abolished): 222 ± 9 nM

B6: poly-U12 (ssRNA)
RNA: UUUUUUUUUUUU
binding result (DDX3X N-IDR [3]): no binding | binding result (MBP-FL DDX3X [4]; label: 3'-FAM): no binding

B7: FAM-14mer tetraloop (structured_RNA)
RNA: GGCACUUCGGUGCC
binding result (MBP-FL DDX3X [4]; label: 5'-FAM, hairpin): no binding

B8: telomeric GQ RNA (structured_RNA)
RNA: UAGGGUUAGGGU
binding result (RR-1 fragment [5]; [16]): binds | binding result (RR-3 fragment [6]): binds | binding result (RR-2 fragment [7]; [16]): binds | Kd (DDX3X N-IDR [8]): 3400 nM

B9: NRAS GQ RNA (structured_RNA)
RNA: UGUGGGAGGGGCGGGUCUGGGUGC
binding result (RR-1 fragment [5]; G4 monomer): binds | binding result (RR-2 fragment [7]; G4 monomer): binds | Kd (DDX3X N-IDR [9]): 1400 nM | binding result (RR-3 fragment [10]): binds

B10: poly-U10 (ssRNA)
RNA: UUUUUUUUUU
binding result (RR-1 fragment [11]): no binding | binding result (RR-3 fragment [12]): no binding | binding result (RR-2 fragment [13]): no binding

B11: GC-14mer dsRNA (NMR) (dsRNA)
RNA 1: GGGCGGGCCCGCCC
RNA 2: GGGCGGGCCCGCCC
binding result (RR-1 fragment [11]; blunt, self-complementary): no binding | binding result (RR-3 fragment [12]; blunt, self-complementary): no binding | binding result (RR-2 fragment [13]; blunt, self-complementary): no binding

B12: NRAS mutant RNA (ssRNA)
RNA: UGUAGAAAGAGCAGAUCUAGAUGC
binding result (RR-1 fragment [11]; GQ abolished): no binding | binding result (RR-3 fragment [12]; GQ abolished): no binding | binding result (RR-2 fragment [13]; GQ abolished): no binding

B13: ODC1 279-303 (structured_RNA)
RNA: GCUGACGGGCGCGGCGGGGGCGGCC
binding result (DDX3X N-IDR [14]): binds

B14: MITF 62-86 (structured_RNA)
RNA: GAAAGUAGAGGGAGGGAUAGUCUAC
binding result (DDX3X N-IDR [15]; G4): binds

B15: MITF 7-31 (ssRNA)
RNA: AUACCUUGUUUAUAGUACCUUCUCU
binding result (DDX3X N-IDR [15]; non-GQ): no binding
